# Test results: publication PMC314469, “Protein Interaction Networks by Proteome Peptide Scanning” (PLoS Biology, 2004)
# T1: Boi2 SH3 (BOI2_YEAST), P39969
# T1 chain: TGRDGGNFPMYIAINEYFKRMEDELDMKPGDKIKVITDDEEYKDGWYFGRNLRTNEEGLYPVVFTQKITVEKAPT
# T2: Yhr016c SH3 (YSC84_YEAST), P32793
# T2 chain: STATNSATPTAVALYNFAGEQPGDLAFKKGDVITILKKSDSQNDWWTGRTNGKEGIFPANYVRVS
# T3: Yfr024 SH3 (LSB3_YEAST), P43603
# T3 chain: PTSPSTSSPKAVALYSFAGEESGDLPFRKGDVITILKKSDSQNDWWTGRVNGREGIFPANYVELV
# T4: Boi1 SH3 (BOI1_YEAST), P38041
# T4 chain: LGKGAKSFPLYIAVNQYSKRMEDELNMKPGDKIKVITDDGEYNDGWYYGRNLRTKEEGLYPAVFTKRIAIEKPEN
# T5: Myo5 SH3 (MYO5_YEAST), Q04439
# T5 chain: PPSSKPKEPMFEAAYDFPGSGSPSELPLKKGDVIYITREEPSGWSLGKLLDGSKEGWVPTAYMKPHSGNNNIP
# T6: Rvs167 SH3 (RV167_YEAST), P39743
# T6 chain: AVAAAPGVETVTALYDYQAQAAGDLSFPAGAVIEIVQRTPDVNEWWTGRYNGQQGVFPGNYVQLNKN
# Target: T1, Boi2 SH3 (BOI2_YEAST), P39969
# Assay: SPOT array
row,Binder,"normalised SPOT signal, Boehringer light units (BLU); mean over the file's lines of this peptide"
1,DDIIKDHPHIPNGQ [YOR360C 470-483],0.5
2,AVQLKRQPAQPRES [YBR191W 125-138],14.1
3,SRHLKLVPSTPMDI [YBR128C 258-271],102
4,DEFNRNTPPQPSLL [YPL084W 526-539],33.7
5,SFKTKFAPEAPDLF [YDL195W 303-316],15
6,SAKSKSRPNTPGSD [YIR007W 739-752],23.7
7,DEALRYSPDAPIVL [YNL090W 103-116],16.1
8,DDNVRPSPISPSIN [YLR337C 513-526],18.9
9,SKYNRQHPANPAAA [YPL247C 221-234],48.5
10,AVVYKLKPYIPSLS [YGR284C 61-74],24.9
11,SNRARYLPQNPDII [YBR195C 132-145],45.5
12,SLRARNGPVPPVHI [YIR027C 235-248],0
13,SNYSKIFPGIPISL [YOR245C 211-224],25.9
14,SWHPKTIPKQPMEI [YGL197W 260-273],40.7

# Target: T2, Yhr016c SH3 (YSC84_YEAST), P32793
# Assay: SPOT array
row,Binder,"normalised SPOT signal, Boehringer light units (BLU); mean over the file's lines of this peptide"
1,DDIIKDHPHIPNGQ [YOR360C 470-483],74
2,AVQLKRQPAQPRES [YBR191W 125-138],41.3
3,SRHLKLVPSTPMDI [YBR128C 258-271],40
4,DEFNRNTPPQPSLL [YPL084W 526-539],25.1
5,SFKTKFAPEAPDLF [YDL195W 303-316],19
6,SAKSKSRPNTPGSD [YIR007W 739-752],0
7,DEALRYSPDAPIVL [YNL090W 103-116],22.9
8,DDNVRPSPISPSIN [YLR337C 513-526],18.2
9,SKYNRQHPANPAAA [YPL247C 221-234],38.8
10,AVVYKLKPYIPSLS [YGR284C 61-74],32.4
11,SNRARYLPQNPDII [YBR195C 132-145],47.2
12,SLRARNGPVPPVHI [YIR027C 235-248],9.1
13,SNYSKIFPGIPISL [YOR245C 211-224],60.1
14,SWHPKTIPKQPMEI [YGL197W 260-273],79.8

# Target: T3, Yfr024 SH3 (LSB3_YEAST), P43603
# Assay: SPOT array
row,Binder,"normalised SPOT signal, Boehringer light units (BLU); mean over the file's lines of this peptide"
1,DDIIKDHPHIPNGQ [YOR360C 470-483],34
2,AVQLKRQPAQPRES [YBR191W 125-138],438
3,SRHLKLVPSTPMDI [YBR128C 258-271],546
4,DEFNRNTPPQPSLL [YPL084W 526-539],73.4
5,SFKTKFAPEAPDLF [YDL195W 303-316],23.2
6,SAKSKSRPNTPGSD [YIR007W 739-752],122
7,DEALRYSPDAPIVL [YNL090W 103-116],50.8
8,DDNVRPSPISPSIN [YLR337C 513-526],120
9,SKYNRQHPANPAAA [YPL247C 221-234],126
10,AVVYKLKPYIPSLS [YGR284C 61-74],132
11,SNRARYLPQNPDII [YBR195C 132-145],304
12,SLRARNGPVPPVHI [YIR027C 235-248],157
13,SNYSKIFPGIPISL [YOR245C 211-224],112
14,SWHPKTIPKQPMEI [YGL197W 260-273],1300

# Target: Sho1 SH3 (SHO1_YEAST), P40073
# Sequence (P40073 295-366): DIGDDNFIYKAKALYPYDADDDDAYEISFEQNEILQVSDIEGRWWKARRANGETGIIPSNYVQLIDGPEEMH
# Assay: SPOT array
row,Binder,"normalised SPOT signal, Boehringer light units (BLU); mean over the file's lines of this peptide"
1,DDIIKDHPHIPNGQ [YOR360C 470-483],23.4
2,AVQLKRQPAQPRES [YBR191W 125-138],65
3,SRHLKLVPSTPMDI [YBR128C 258-271],225
4,DEFNRNTPPQPSLL [YPL084W 526-539],14.3
5,SFKTKFAPEAPDLF [YDL195W 303-316],35.8
6,SAKSKSRPNTPGSD [YIR007W 739-752],146
7,DEALRYSPDAPIVL [YNL090W 103-116],49.5
8,DDNVRPSPISPSIN [YLR337C 513-526],23.2
9,SKYNRQHPANPAAA [YPL247C 221-234],65.9
10,AVVYKLKPYIPSLS [YGR284C 61-74],93.3
11,SNRARYLPQNPDII [YBR195C 132-145],35.8
12,SLRARNGPVPPVHI [YIR027C 235-248],58.5
13,SNYSKIFPGIPISL [YOR245C 211-224],27.6
14,SWHPKTIPKQPMEI [YGL197W 260-273],187

# Target: T4, Boi1 SH3 (BOI1_YEAST), P38041
# Assay: SPOT array
row,Binder,"normalised SPOT signal, Boehringer light units (BLU); mean over the file's lines of this peptide"
1,DDIIKDHPHIPNGQ [YOR360C 470-483],187
2,AVQLKRQPAQPRES [YBR191W 125-138],1480
3,SRHLKLVPSTPMDI [YBR128C 258-271],441
4,DEFNRNTPPQPSLL [YPL084W 526-539],73.9
5,SFKTKFAPEAPDLF [YDL195W 303-316],59.6
6,SAKSKSRPNTPGSD [YIR007W 739-752],1740
7,DEALRYSPDAPIVL [YNL090W 103-116],37.1
8,DDNVRPSPISPSIN [YLR337C 513-526],19.1
9,SKYNRQHPANPAAA [YPL247C 221-234],210
10,AVVYKLKPYIPSLS [YGR284C 61-74],99.5
11,SNRARYLPQNPDII [YBR195C 132-145],386
12,SLRARNGPVPPVHI [YIR027C 235-248],638
13,SNYSKIFPGIPISL [YOR245C 211-224],41
14,SWHPKTIPKQPMEI [YGL197W 260-273],26.3

# Target: T5, Myo5 SH3 (MYO5_YEAST), Q04439
# Assay: SPOT array
row,Binder,"normalised SPOT signal, Boehringer light units (BLU); mean over the file's lines of this peptide"
1,DDIIKDHPHIPNGQ [YOR360C 470-483],57.8
2,AVQLKRQPAQPRES [YBR191W 125-138],238
3,SRHLKLVPSTPMDI [YBR128C 258-271],362
4,DEFNRNTPPQPSLL [YPL084W 526-539],118
5,SFKTKFAPEAPDLF [YDL195W 303-316],209
6,SAKSKSRPNTPGSD [YIR007W 739-752],153
7,DEALRYSPDAPIVL [YNL090W 103-116],127
8,DDNVRPSPISPSIN [YLR337C 513-526],153
9,SKYNRQHPANPAAA [YPL247C 221-234],189
10,AVVYKLKPYIPSLS [YGR284C 61-74],112
11,SNRARYLPQNPDII [YBR195C 132-145],244
12,SLRARNGPVPPVHI [YIR027C 235-248],208
13,SNYSKIFPGIPISL [YOR245C 211-224],49.2
14,SWHPKTIPKQPMEI [YGL197W 260-273],343

# Target: T6, Rvs167 SH3 (RV167_YEAST), P39743
# Assay: SPOT array
row,Binder,"normalised SPOT signal, Boehringer light units (BLU); mean over the file's lines of this peptide"
1,DDIIKDHPHIPNGQ [YOR360C 470-483],25.4
2,AVQLKRQPAQPRES [YBR191W 125-138],73.8
3,SRHLKLVPSTPMDI [YBR128C 258-271],83.7
4,DEFNRNTPPQPSLL [YPL084W 526-539],14.4
5,SFKTKFAPEAPDLF [YDL195W 303-316],46.5
6,SAKSKSRPNTPGSD [YIR007W 739-752],129
7,DEALRYSPDAPIVL [YNL090W 103-116],32.9
8,DDNVRPSPISPSIN [YLR337C 513-526],17.2
9,SKYNRQHPANPAAA [YPL247C 221-234],61.3
10,AVVYKLKPYIPSLS [YGR284C 61-74],31.8
11,SNRARYLPQNPDII [YBR195C 132-145],36.2
12,SLRARNGPVPPVHI [YIR027C 235-248],46.2
13,SNYSKIFPGIPISL [YOR245C 211-224],84.8
14,SWHPKTIPKQPMEI [YGL197W 260-273],90.4
